The results in this text go back to article PMC9388122.

For assay [1], the target named is (H3-H4)2 tetramer (recombinant Xenopus laevis histones) (X. laevis) (UniProt P84233). The assay is described as follows: single-molecule photobleaching steps (optical tweezers with fluorescence detection); H2A-Cy3 hexasomes ligated to 2.5-kb DNA handles.
Assay [2] shares this target. The assay is described as follows: single-molecule photobleaching steps (optical tweezers with fluorescence detection); H2A-Cy3 nucleosomes ligated to 2.5-kb DNA handles, at low tension.

Turning to “H2A-Cy3-H2B heterodimer (H2A labelled with one Cy3 at the C-terminal tail by sortase) (from UniProt P06897 1-130; P02281 1-126) (complex)”, the figures for the stoichiometry N in assay [1] and in assay [2] were 1 and 2, respectively.
